Assay results from publication PMC4006922, “The Human Adenovirus E4-ORF1 Protein Subverts Discs Large 1 to Mediate Membrane Recruitment and Dysregulation of Phosphatidylinositol 3-Kinase” (PLoS Pathogens, 2014).

Target: T1, purified, catalytically-active recombinant human p85α:p110α heterodimer (human, UniProt P27986 1-724; P42336 1-1068)
T1 construct: human PI3K regulatory subunit p85α; human PI3K catalytic subunit p110α; also called recombinant human PI3K; purified recombinant PI3K protein; source: bought: SignalChem (co-expression in Sf9 cells, >90% pure)
T1 sequence (P27986 whole entry, chain 1 of 2): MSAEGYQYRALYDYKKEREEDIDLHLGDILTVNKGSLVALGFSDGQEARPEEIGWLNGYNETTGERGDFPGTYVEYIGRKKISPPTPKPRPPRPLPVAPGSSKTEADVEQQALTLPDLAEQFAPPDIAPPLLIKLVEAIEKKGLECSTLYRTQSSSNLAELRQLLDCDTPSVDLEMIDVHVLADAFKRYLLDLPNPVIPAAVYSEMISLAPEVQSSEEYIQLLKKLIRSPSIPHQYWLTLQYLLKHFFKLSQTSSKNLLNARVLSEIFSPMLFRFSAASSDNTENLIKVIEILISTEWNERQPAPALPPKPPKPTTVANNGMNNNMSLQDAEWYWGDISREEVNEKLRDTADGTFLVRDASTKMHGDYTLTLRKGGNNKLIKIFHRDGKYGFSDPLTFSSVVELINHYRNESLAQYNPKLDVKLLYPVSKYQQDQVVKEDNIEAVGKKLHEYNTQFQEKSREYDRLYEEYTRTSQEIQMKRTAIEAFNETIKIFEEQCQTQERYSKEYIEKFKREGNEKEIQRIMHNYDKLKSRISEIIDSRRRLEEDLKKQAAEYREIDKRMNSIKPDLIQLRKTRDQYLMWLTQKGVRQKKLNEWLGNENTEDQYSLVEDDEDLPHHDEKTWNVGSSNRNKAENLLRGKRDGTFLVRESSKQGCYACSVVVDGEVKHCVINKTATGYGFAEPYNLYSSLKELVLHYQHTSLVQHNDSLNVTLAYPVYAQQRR
T1 sequence (P42336 whole entry, chain 2 of 2): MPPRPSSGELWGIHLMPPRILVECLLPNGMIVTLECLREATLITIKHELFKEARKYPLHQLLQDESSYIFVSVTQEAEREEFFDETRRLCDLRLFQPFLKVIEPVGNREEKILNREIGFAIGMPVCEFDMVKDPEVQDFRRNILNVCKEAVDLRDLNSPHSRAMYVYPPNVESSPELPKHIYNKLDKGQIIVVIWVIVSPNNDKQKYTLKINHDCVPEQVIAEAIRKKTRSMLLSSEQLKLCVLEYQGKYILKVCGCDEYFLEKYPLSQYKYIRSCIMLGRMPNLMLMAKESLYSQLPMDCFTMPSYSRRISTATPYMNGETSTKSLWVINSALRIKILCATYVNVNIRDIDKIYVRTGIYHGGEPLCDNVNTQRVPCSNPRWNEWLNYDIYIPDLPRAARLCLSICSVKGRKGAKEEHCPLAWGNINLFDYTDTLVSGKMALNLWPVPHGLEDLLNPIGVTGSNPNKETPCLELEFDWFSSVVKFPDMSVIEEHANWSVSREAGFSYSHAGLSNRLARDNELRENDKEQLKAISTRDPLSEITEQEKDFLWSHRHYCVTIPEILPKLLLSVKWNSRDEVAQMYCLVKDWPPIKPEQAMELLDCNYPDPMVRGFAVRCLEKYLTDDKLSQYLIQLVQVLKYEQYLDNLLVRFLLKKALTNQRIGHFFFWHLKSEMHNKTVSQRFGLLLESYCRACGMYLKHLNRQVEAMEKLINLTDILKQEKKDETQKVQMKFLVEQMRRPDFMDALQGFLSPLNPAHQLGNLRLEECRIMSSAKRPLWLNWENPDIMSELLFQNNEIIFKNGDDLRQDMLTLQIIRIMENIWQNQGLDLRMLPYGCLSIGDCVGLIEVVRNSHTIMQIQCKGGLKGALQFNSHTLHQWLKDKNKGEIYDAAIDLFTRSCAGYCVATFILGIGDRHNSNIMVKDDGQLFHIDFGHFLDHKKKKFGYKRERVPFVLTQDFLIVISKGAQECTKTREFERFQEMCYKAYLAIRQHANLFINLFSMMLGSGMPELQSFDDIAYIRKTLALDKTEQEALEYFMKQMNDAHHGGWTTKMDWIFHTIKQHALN
Test: pull-down; purified recombinant human PI3K (1 µg) with GST or GST-Ad9 E4-ORF1 on glutathione-sepharose beads; immunoblot with p85α and p110α antibodies
Conditions: both partners purified

B1: GST-Ad9 E4-ORF1 fusion protein (natural protein)
chain: MAESLYAFIDSPGGIAPVQEGTSNRYTFFCPESFHIPPHGVVLLHLKVSVLVPTGYQGRFMALNDYHARDILTQSDVIFAGRRQELTVLLFNHTDRFLYVRKGHPVGTLLLERVIFPSVKIATLV
notes: Human adenovirus type 9 (Ad9) E4-ORF1 protein, wild type; also called GST-E4-ORF1; glutathione S-transferase (GST) fused to Ad9 E4-ORF1; source: bacterially expressed fusion protein (plasmid pGEX-2TK with wt E4-ORF1 cDNA), on glutathione-sepharose beads
Question: Does B1 bind?
Answer: binds
